# Reference: PMC8036949, “Investigation of the Interaction of Human Origin Recognition Complex Subunit 1 with G-Quadruplex DNAs of Human c-myc Promoter and Telomere Regions”
# T1: hORC1(413-511) (Homo sapiens, UniProt Q13415 413-511)
# T1 sequence: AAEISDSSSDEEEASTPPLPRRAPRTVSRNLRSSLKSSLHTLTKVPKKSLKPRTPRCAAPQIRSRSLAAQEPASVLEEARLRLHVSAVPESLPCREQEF
# B1: dsDNA (dsDNA)
# DNA 1: AAATTTAAAAAAAAAAATAATT
# DNA 2: AATTATTTTTTTTTTTAAATTT
# Molecular target: T1, hORC1(413-511)
# Test: fluorescence anisotropy; 100 mM KCl; FA: 20 mM HEPES-KOH pH 7.7, 100 mM KCl (or LiCl), 1 mM EDTA, 1 mM DTT, 25 C, 2 uM DNA, 1:1 fit; NMR: same buffer with 10% D2O, 10 uM DSS, 75 uM DNA, 25 C
# Details: protein: recombinant, tags: N-terminal GST (pGEX-6P-1) removed with PreScission protease
# [1] = label: 5'-FAM, G4, multiple folds, 1 strand
binder,measurement,setting,value
B1,Kd,"label: 5'-FAM on strand 1, blunt",1910 nM
TTGGGTTAGGGTTAGGGTTAGGGA (structured_DNA) [teloDNA],Kd,"label: 5'-FAM (FA), label in NMR not clear, (3+1) G4 in K+, 1 strand",227 ± 23.6 nM
TGAGGGTGGGGAGGGTGGGGAA (structured_DNA) [wtPu22],Kd,[1],166 nM
TGAGGGTGGGTAGGGTGGGTAA (structured_DNA) [mtPu22],Kd,"label: 5'-FAM (FA), label in NMR not clear, parallel G4, 1 strand",310 ± 39.2 nM
TGGGGAGGGTGGGGAGGGT (structured_DNA) [wtPu19],Kd,[1],45.2 nM
TAGGGAGGGTAGGGAGGGT (structured_DNA) [mtPu19],Kd,"label: 5'-FAM, parallel G4, 1 strand",446 ± 308 nM
